This series in a line: label from the status in PepcDB records.
Consider “MRPLEDDEPTVVGPYRLLGRLGSGGMGRVYLGRSAGGRTVAVKIVHPHFALDEEFRARFRREVAAARRVGGAWTAPVLDADPEARVPWVATAYAAGPSLTAAVADGGPLPAHSVRALGAGLGEALAAVHELGLVHRDVKPSNVLLTLDGPLLIDFGIARATGGTSPTQSGGGTASLTSTGVSIGSPGYMSPEQILGKGVTGAADVFSLGAVLAYATTGQPPFPGDSSAALLYKVVHEEPNLDGLDDGELRELVASCLAKDPSARPAPAEVARRLAPEGAARLVTGGWLPGALVERVSRSAVRLLNLEAGESATGASGPVGFSRPSVTAGGDAGVATPASGVFGPPPVMPAPTSPSYPPSPPAPAPAPSPALLSVPGPRHPGPPDDDPGAGTGTTRPPGRLALSVAATSTQGAQGRGRRISCTVALAVAGALAAVTVGSVFVLDLLPGSGNDANNAGGNEASHDPPAATPGGLPARYLGTWEGQAAALDGKLPLGTFRITIKQAKAGQELGRLRQTDALGGVCVDVITLKKVTEKQLVAGSAGAEGNHDGCNPAPTTVTFTPVGDDLDYASKSEESGRPTARLSKVG”, for which the protein production result was “failed”.

With “MRPSAPNIWIWKVSNLASDPRETVSGEWYAARSNLSSAARLRHGGTLLLVLDAKDNHVITKAEIKAVEISHRVGTIPREIHFPDGSLFETSDNEGVDRLLGLYLPKRAGFVHRLEQFRPRLIGITAAAVLLAYGTYKLALPAVVELAVAMTPPIVPKIMSASTMQALDQTVFSASELPLEEQNAIRVQFSRIAAHAEGSPEDYKLNFRKGGYIGPNAFALPDGTLVLTDELVELAGGDRQMIIGVLAHEIGHVEYEHSLRQLYRAAGVAGLVMLIAGDVGSAMEDILTQGGGLLALSHSRDAERQADQRSVELMRKADLDPTAIERFFALLEEKLGDKGGTSIISTHPGTPQRRKAIIDYNASLDNKPAGNLEHHHHHH”, the protein production result was “failed”.

On to “MRPTITALVLTYNGERLLDRCLGSLAFCDRILVVDSFSTDATVAIAQAAGAEVLQRKWEGPGPQFAFALEKISDGWIVSLDQDEICSEELRDSILAATAADSGEAGYWIPRRSWYFDRFLKHSGWYPDHLLRLFRAGRMRVEVSGAHYSFHPDGETGTLTGDILHYPYESFRQHLDKVNDYAQKGADDLRAKGKRGGLCAGLCHGAGRFIRIYIIKRGFLDGRAGFINAIHGAFYAFLKHLRIEEGDWGRPFEHKLEHHHHHH”, for which the protein production result was “not failed”.

On to “MRQARGRVHKNLGARVGSARPRSSLGHRTGIMKGQDMPGTVRLHRVLTTSPEKVYRAFVEADALAKWLPPNGFTCTVDHLEAKVGGTFKMSFRNFTTGGSHAFGGEYLELVPGERLRYTDRFDDPNLPGEIQVTVILKKVSVGTEIDITQAGIPDVIPVEACYLGWQESLRNLAKLVEPEINQ”, for which the protein production result is reported as “failed”.

With “MRQIPQNHIHTRSTPFWNKETAPAGIFERHLDKGTRPGVYPRLSVMQGAVKYLGYADEHCSEPEEIMVINAGEFGVFPPEKWHNIEVMTDDTYFNIDFFVAPEVLMEGATSRKVIHAGRE”, the protein production entry is recorded as “failed”.

With “MRQKETTATTRFSLLPGSITRFFLLLIIVLLVTMGVMVQSAVNAWLKDKSYQIVDITHAIQKRVDNWRYVTWQIYDNIAATTSPSSGEGLQETRLKQDVYYLEKPRRKTEALIFGSHDNSTLEMTQRMSTYLDTLWGAENVPWSMYYLNGQDNSLVLISTLPLKDLTSGFKESTVSDIVDSRRAEMLQQANALDERESFSNMRRLAWQNGHYFTLRTTFNQPGHLATVVAFDLPINDLIPPGMPLDSFRLEPDATATGNNDNEKEGTDSVSIHFNSTKIEISSALNSTDMRLVWQVPYGTLLLDTLQNILLPLLLNIGLLALALFGYTTFRHFSSRSTENVPSTAVNNELRILRAINEEIVSLLPLGLLVHDQESNRTVISNKIADHLLPHLNLQNITTMAEQHQGIIQATINNELYEIRMFRSQVAPRTQIFIIRDQDREVLVNKKLKQAQRLYEKNQQGRMIFMKNIGDALKEPAQSLAESAAKLNAPESKQLANQADVLVRLVDEIQLANMLADDSWKSETVLFSVQDLIDEVVPSVLPAIKRKGLQLLINNHLKAHDMRRGDRDALRRILLLLMQYAVTSTQLGKITLEVDQDESSEDRLTFRILDTGEGVSIHEMDNLHFPFINQTQNDRYGKADPLAFWLSDQLARKLGGHLNIKTRDGLGTRYSVHIKMLAADPEVEEEEERLLDDVCVMVDVTSAEIRNIVTRQLENWGATCITPDERLISQDYDIFLTDNPSNLTASGLLLSDDESGVREIGPGQLCVNFNMSNAMQEAVLQLIEVQLAQEEVTESPLGGDENAQLHASGYYALFVDTVPDDVKRLYTEAATSDFAALAQTAHRLKGVFAMLNLVPGKQLCETLEHLIREKDVPGIEKYISDIDSYVKSLL”, the protein production entry is given as “failed”.

As for “MRQPAIAAVDLGASKVTCFIMKADGVHRDNRTLTTAGVGYVQSRGVRGGAIVNLDEAAQAIAQAVERAETVAGVSVQGVSVCTAGGQLASHRVHTQVSLGARPIGDGDLSRAIASALAQVRIPGRKPIHLLPIAWSVDGQRGIRDPRAMFGRALGLELLVVSVNENIFHTLAHCVERAHLSFEGIVAAPFASALAALEEDEMDLGAVCIDMGGGSTSVAVFNNGALCHVDSLAVGGGHVTQDIARGLQTSVVGAERIKTLHGSAIASANEDREMIEAPPRGDDPGAGPVIAPRSLLKGIIQPRVEETLELLRERLKASGAPVEPGAGIVLTGGASQLAGVREVAVRVFDRPVRLGRPRRVPHLADAASGPAFCAAAGVLHRTAFGPREAVSSKALAGGVARKRPIDPNASPMAKAAAWLRDNL”, the protein production result is given as “failed”.

In the case of “MRQRTIVCPLIQNDGCYLLCKMADNRGVFPGQWALSGGGVEPGERIEEALRREIREELGEQLILSDITPWTFRDDIRIKTYADGRQEEIYMIYLIFDCVSANRDICINDEFQDYAWVAPAALALYDLNVATRHTLALKGLL”, the protein production entry is “not failed”.

Take “MRQWIAVFALVGSVAAQAGVADQAAAVSALKEGKLAMDVRSQTDYEAGTVLNAVRVDERRLVNQMKQVLSDRNAVFVIFSSTDSKADKAQEKLRAAGYFSVINGGNYEELHNALYDITDDPAE”: the protein production result is listed as “failed”.

For “MRREALKNAVLKIMTEKMELKNVTHLEETMRLNQDLYIDSVMMLQLIVYIEMDVKLCVPEDEVDPKAFLTVGSLLDFMEELQPLQDVNVNN”, the protein production entry is on record as “failed”.

For “MRRFALTVALPKGRMFREAYEVLKRAGLDLPEVEGERTLLHGKEGGVALLELRNKDVPIYVDLGIAEIGVVGKDVLLDSGRDLFEPVDLGFGACRLSLIRRPGDTGPIRRVATKYPNFTARLLKERGWAADVVELSGNIELAAVTGLADAVVDVVQTGATLRAAGLVEVEVLAHSTARLVVNRQALKLKRAVLKPLIQRLRELSGS”, the protein production result is reported as “not failed”.

Consider “MRRICKVLMVIISIILGSGAPLNMAIPPLLALAAPDTSSSSTMSSSAISKVTDTNVMAVSADVTSTTDTSDTSSSDSTSATSTTTGNDTTETADTAVESGTVGTVAWTIDDAGVLTLSGGSFADLTGKRSPWYDYASSITNIKITDEITVTTASNYGYLFASLANVATVTGLNKLSMSGVTSTQSIFYRDSKLTSVDFGQTDFSTVTTMESMFEGCSVLTKVNTTNWNVSHVKSFKRTFYMCGKLTMLDVSNWDVTQVTNLDSTFSGCSSLPELDVSRWNTANVTTLASTFYSCSSVKIINASGWDTARVTDMTATFMNCTLATELNVSGWDTAKVTSMSRMFFYCENVIQLDVSGWITSQVTSLGSMFQNCSKVVTLDVGTWDTSKVTDMSFLFGGCSSLTTLNLEKWDTGSVTTLYSTFYNCSGLTSLLVDTWDTSKVTNCFWTFGGCSSLTTLNLRSWDLQSATASYGNFFNGSKKLQHLTLGPNFTFHNDKTMYLPEPSKQLPYNGTWQRNNDDPTYTSAELMTNYDGATMAGTYNWVKTSGTVLVKYVDGDGVEIADEETSSGTSGDAYQTTAKTIDGYTLHATPTNATGTYDASTITVTYVYDGNLFFNSSPTMLDFGSHTISGTTETYAPTLDKTLAVQNNGQISSTWNLTAELDSSGFVGADTGKMLLATLYYQTDDGKMTLSPGVAVQVYSQTTTDHKSVDISEHWSSNLGLLLEVPNGAAMADTYQGTISWRLNNTVANN”, for which the protein production entry was “failed”.

For “MRRKNLFWDDVYKGTPPWDLDHPQPAFEALIKNGEIKPGRALDIGCGRGENAIILAMNGCDVIGIDLAENAISDAKAKATERHVKVKFVVEDALQMNRLFEEGEFDVVIDSGLFHVMMDEQRRVFAQQVHRVLREGGKYFMLCFSDKEPGEYELPRRLSKAEIESTFSPVFDITYIKEAVFDSLLSPSRRKAYLLSATRSLEHHHHHH”, the protein production entry is given as “failed”.

As to “MRRLLITILIFLLSNAGCCAPVFEIIPLGVYGGLKDGNLSAYLIKAIESKNYTALDGGTLVRGLEVAVDRQSLPSKKVDDLLQKHIPAYLISHAHLDHVMGLVMAQPELREKQTIMAREETMQALQDNIFNWSVWGNFGDSGAIPHLNFQHYQTLPLLQWLAIPDTDLHVKVFPLSHSGMASSAFLIRYKTEYALYFGDTGADRIEKSTNMENIWKEIAPLIRNKQLHAIMLECSFLNSQPDDKLFGHLKPNLFMSELRHLASIVDPFDSRNSLRGLPVVVTHIKPKLADFSNTNEDTEKQVINELSQENDIGVELIKPEQGITLSL”, the protein production entry is reported as “failed”.

Regarding “MRRLPTFGWALLVSIWAGLVGGAVIREPSVDLVPLYAVICQLLGLIAAYGTMRERSHILESVHRPGRVGMFIIILFFVMVPLTTVFALVLGDASVAGVATQWVSYLVGLGIALYVAFAGGFDRAWEKYT”, the protein production entry is “failed”.

With “MRRLRFSPRSSFARTLLLIVTLLFASLVTTYLVVLNFAILPSLQQFNKVLAYEVRMLMTDKLQLEDGTQLVVPPAFRREIYRELGISLYSNEAAEEAGLRWAQHYEFLSHQMAQQLGGPTEVRVEVNKSSPVVWLKTWLSPNIWVRVPLTEIHQGDFSPLFRYTLAIMLLAIGGAWLFIRIQNRPLVDLEHAALQVGKGIIPPPLREYGASEVRSVTRAFNHMAAGVKQLADDRTLLMAGVSHDLRTPLTRIRLATEMMSEQDGYLAESINKDIEECNAIIEQFIDYLRTGQEMPMEMADLNAVLGEVIAAESGYEREIETALYPGSIEVKMHPLSIKRAVANMVVNAARYGNGWIKVSSGTEPNRAWFQVEDDGPGIAPEQRKHLFQPFVRGDSARTISGTGLGLAIVQRIVDNHNGMLELGTSERGGLSIRAWLPVPVTRAQGTTKEG”, the protein production entry is recorded as “failed”.

On to “MRRLVLAALLAATSLTTAKAGDLLIHGGPIHTGVEAAPTAEAVLIRDDKILFVGPLAAAKAKAAKDVRAIDLKGAAAYPGFVDAHAHLTGIGLRELTLNLDQVKSVAELVAAVKAYAAAHPEGPISGRGWIETHWPEKRFPTKADLDAAAPGRIVVLGRSDGHASVASSAALAKAGITAATVPPPGGDILKGPDGQPDGMLIDHAQALVRNVIPPPNQALKREALRKAGQLYAARGWTGMANMSVMAEDLSLLRDEAAKGNFHIRIDNYMDPSGAEEVLTKGPQTDATGLIRVQGIKLYMDGALGSRGAALLEPYSDADTLGLQLTQPEQGLALMKRAKAAGAQVAMHAIGDRGNRLVLDWFEQSLGAEAKAARWRNEHSQIVADTDVPRFAKLGVIASMQPSHAIGDLFFAPARLGKARLHEGYRWADFLKADVVVAAGSDAPVEVGDPRIEFYAAVYRHSLDGFANADWHLDQAVSRAEALKMLTLAPAYAVFREKELGTLEAGKKADVTAFDRDLMTVEPKAILTAQPVLTVVDGKVVYSR”, for which the protein production entry is on record as “failed”.

The record behind these values is a protein production outcome set (Wang et al. 2014).
